Test results: publication PMC10978931, “Structure and function of Semaphorin-5A glycosaminoglycan interactions” (Nature Communications, 2024)

B1: human Semaphorin-5A TSR3-4, Sema5A_(TSR3-4) (residues 652P-765T) (domain or fragment, UniProt Q13591 652-765, looked up)
chain: PHMFWTGWGPWERCTAQCGGGIQARRRICENGPDCAGCNVEYQSCNTNPCPELKKTTPWTPWTPVNISDNGGHYEQRFRYTCKARLADPNLLEVGRQRIEMRYCSSDGTSGCST
modifications: C-mannosyl tryptophan at W656 and W659; N-glycans reduced to single residues by EndoF1 (crystals)
notes: Semaphorin-5A, human, UniProtKB Q13591, residues 652P-765T (thrombospondin type-1 repeats 3 and 4); The tag was cleaved by HRV 3C protease for crystallization; Inter-protomer disulfides C689-C689' and C733-C733'; source: HEK293T, transfected (with kifunensine for crystallization), purified (Ni-NTA, 3C cleavage, SEC); not shown: 3C-Avi-His6, C-terminal, cleaved
B2: human Semaphorin-5A ectodomain Sema5A_(sema-TSR1-7) (residues 23E-944S) (domain or fragment, UniProt Q13591 23-944, looked up)
chain: EAQGTTQCQRTEHPVISYKEIGPWLREFRAKNAVDFSQLTFDPGQKELVVGARNYLFRLQLEDLSLIQAVEWECDEATKKACYSKGKSKEECQNYIRVLLVGGDRLFTCGTNAFTPVCTNRSLSNLTEIHDQISGMARCPYSPQHNSTALLTAGGELYAATAMDFPGRDPAIYRSLGILPPLRTAQYNSKWLNEPNFVSSYDIGNFTYFFFRENAVEHDCGKTVFSRAARVCKNDIGGRFLLEDTWTTFMKARLNCSRPGEVPFYYNELQSTFFLPELDLIYGIFTTNVNSIAASAVCVFNLSAIAQAFSGPFKYQENSRSAWLPYPNPNPHFQCGTVDQGLYVNLTERNLQDAQKFILMHEVVQPVTTVPSFMEDNSRFSHVAVDVVQGREALVHIIYLATDYGTIKKVRVPLNQTSSSCLLEEIELFPERRREPIRSLQILHSQSVLFVGLREHVVKIPLKRCQFYRTRSTCIGAQDPYCGWDVVMKKCTSLEESLSMTQWEQSISACPTRNLTVDGHFGVWSPWTPCTHTDGSAVGSCLCRTRSCDSPAPQCGGWQCEGPGMEIANCSRNGGWTPWTSWSPCSTTCGIGFQVRQRSCSNPTPRHGGRVCVGQNREERYCNEHLLCPPHMFWTGWGPWERCTAQCGGGIQARRRICENGPDCAGCNVEYQSCNTNPCPELKKTTPWTPWTPVNISDNGGHYEQRFRYTCKARLADPNLLEVGRQRIEMRYCSSDGTSGCSTDGLSGDFLRAGRYSAHTVNGAWSAWTSWSQCSRDCSRGIRNRKRVCNNPEPKYGGMPCLGPSLEYQECNILPCPVDGVWSCWSPWTKCSATCGGGHYMRTRSCSNPAPAYGGDICLGLHTEEALCNTQPCPESWSEWSDWSECEASGVQVRARQCILLFPMGSQCSGNTTESRPCVFDS
notes: Semaphorin-5A, human, UniProtKB Q13591, residues 23E-944S (sema, PSI and TSR1-7 domains); Glycosylated (11 predicted N-glycan sites); also called full-length ectodomain human Sema5A; Sema5A ectodomain; source: HEK293T, transfected, conditioned medium; purified (Ni-NTA, SEC); not shown: His6, C-terminal, kept

Columns and labels:
[1] = target: the molecule itself; assay: crystal structure; Sema5A_(TSR3-4), four crystal forms (apo, nitrate, sulfate, sucrose octasulfate), sitting drop at 20 °C, 1.56-2.72 Å
[2] = target: the molecule itself; assay: mass photometry; Sema5A_(sema-TSR1-7) alone, 100 nM (half of it at measurement), 100 mM NaCl

| Protein | stoichiometry N [1] | stoichiometry N [2] |
| --- | --- | --- |
| B1 | 2 |  |
| B2 |  | 2 |
